Assay results published in US20140011196.

Experiments:
Assay in all cases: cleavage_in_vitro
[1] = target: T1, TaqI restriction endonuclease (Thermus aquaticus) (UniProt P14386); details: 65 C
T1 sequence: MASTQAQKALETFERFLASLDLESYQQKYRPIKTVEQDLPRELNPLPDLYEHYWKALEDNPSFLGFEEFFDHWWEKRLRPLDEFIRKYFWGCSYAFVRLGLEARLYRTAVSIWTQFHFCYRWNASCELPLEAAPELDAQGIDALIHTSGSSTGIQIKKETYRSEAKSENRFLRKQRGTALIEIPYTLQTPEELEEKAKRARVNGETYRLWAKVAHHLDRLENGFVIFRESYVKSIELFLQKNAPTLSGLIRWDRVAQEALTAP

[2] = test system: T2, HpyF30I restriction endonuclease (Helicobacter pylori RFL30)
T2 sequence: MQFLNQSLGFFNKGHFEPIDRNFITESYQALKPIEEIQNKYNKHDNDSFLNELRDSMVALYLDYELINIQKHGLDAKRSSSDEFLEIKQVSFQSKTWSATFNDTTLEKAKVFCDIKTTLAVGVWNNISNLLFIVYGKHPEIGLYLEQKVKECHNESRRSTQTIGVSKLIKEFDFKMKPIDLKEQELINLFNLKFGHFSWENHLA

[3] = test system: PaeR7I restriction endonuclease
[4] = about 50% 5mC at the TCGA site, partial, site about 50% methylated

130 bp lambda PCR fragment C was tested. Which activity ([1]; with Jurkat genomic DNA) did it give?
The activity was 0.7 % undigested.

And the activity ([2]; with Jurkat genomic DNA, SdaI buffer, 37 C)?
The activity was 7 % undigested.

How did the activity ([1]; 5mC in both strands, with Jurkat genomic DNA) turn out when 130 bp lambda PCR fragment m5C was run?
The activity was 0.7 % undigested.

What about the activity ([2]; 5mC in both strands, with Jurkat genomic DNA, SdaI buffer, 37 C) of the same substance?
Its activity is 100 % undigested.

DAPK1 promoter region was tested. Which activity ([1]; qPCR) did it give?
Its activity is 0.7 % undigested.

And the activity ([3]; buffer 4, 37 C, qPCR)?
The activity was 0.8 % undigested.

And the activity ([2]; SdaI buffer, 37 C, qPCR)?
Its activity is 2 % undigested.

Which activity ([1]; about 50% 5mC at the TCGA site, qPCR) does the source give for RASSFA1 promoter region here?
Its activity is 0.8 % undigested.

And the activity [3, 4]?
The activity was 50 % undigested.

And the activity [2, 4]?
The activity was 50 % undigested.

What does the source list for lambda DNA (dam-)?
activity ([1]; TaqI buffer, qPCR): 0.06 % undigested; activity ([2]; SdaI buffer, 15 mM Mg acetate, 37 C, qPCR): 0.6 % undigested

lambda DNA (dam-) M.SssI methylated was tested. Which activity ([1]; 5mC at CpG, both strands, TaqI buffer, qPCR) did it give?
The activity was 0.2 % undigested.

And the activity ([2]; 5mC at CpG, both strands, SdaI buffer, 37 C, qPCR)?
Its activity is 100 % undigested.
